In this assay the target is TLR5.

Take “FliC180 protein of S. Typhimurium (Phase I FliC flagellar antigen with the ΔfliC180 deletion) (from UniProt P06179) (ligand)”: the NF-κB production (% higher than the FliC+ strain) turned out to be 50.

The values are drawn from patent US20150056232A1.
